In publication PMC10693564 (Nature Communications, 2023):

Biological target: T1, UBE1L (1-1012aa) (UniProt P41226 1-1012)
T1 construct: In the cryo-EM sample its active-site cysteine was disulfide-linked to Cys86 of UBE2L6; also called UBA7; not shown: GST, N-terminal, cleaved
T1 sequence (looked up): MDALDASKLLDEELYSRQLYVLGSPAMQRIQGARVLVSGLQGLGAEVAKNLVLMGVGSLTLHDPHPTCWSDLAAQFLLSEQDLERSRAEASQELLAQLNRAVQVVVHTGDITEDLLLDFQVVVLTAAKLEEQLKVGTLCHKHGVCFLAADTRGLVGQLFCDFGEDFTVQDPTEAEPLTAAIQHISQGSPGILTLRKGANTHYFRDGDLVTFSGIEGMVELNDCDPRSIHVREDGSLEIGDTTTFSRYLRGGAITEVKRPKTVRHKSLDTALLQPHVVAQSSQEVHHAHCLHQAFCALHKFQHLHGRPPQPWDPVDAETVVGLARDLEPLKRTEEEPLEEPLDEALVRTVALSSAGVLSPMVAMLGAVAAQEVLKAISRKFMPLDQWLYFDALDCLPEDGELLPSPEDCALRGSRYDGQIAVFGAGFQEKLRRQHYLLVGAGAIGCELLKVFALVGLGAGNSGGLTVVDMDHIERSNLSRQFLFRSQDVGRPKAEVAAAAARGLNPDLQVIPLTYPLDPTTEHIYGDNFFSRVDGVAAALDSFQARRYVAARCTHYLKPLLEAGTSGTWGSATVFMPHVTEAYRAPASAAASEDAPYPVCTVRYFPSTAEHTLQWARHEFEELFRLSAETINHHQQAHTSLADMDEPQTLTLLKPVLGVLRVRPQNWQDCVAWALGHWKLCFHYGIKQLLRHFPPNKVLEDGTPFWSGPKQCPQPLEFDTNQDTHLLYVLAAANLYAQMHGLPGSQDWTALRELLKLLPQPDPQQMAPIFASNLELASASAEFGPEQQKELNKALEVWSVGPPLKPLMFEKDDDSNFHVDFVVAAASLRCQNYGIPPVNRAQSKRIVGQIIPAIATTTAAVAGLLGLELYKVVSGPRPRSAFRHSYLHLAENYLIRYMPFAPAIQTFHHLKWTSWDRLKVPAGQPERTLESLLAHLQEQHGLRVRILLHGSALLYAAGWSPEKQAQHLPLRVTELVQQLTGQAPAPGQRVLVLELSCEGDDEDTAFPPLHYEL
Experiment: cryo-EM structure
Conditions: both partners purified

B1: UBE2L6^C86only (enzyme)
chain: MMASMRVVKELEDLQKKPPPYLRNLSSDDANVLVWHALLLPDQPPYHLKAFNLRISFPPEYPFKPPMIKFTTKIYHPNVDENGQICLPIISSENWKPSTKTSQVLEALNVLVNRPNIREPLRMDLADLLTQNPELFRKNAEEFTLRFGVDRPS
notes: non-catalytic cysteines mutated to serine; also called UBE2L6(C98S/C102S); UbcH8; not shown: 6xHis, N-terminal, cleaved; GST, N-terminal, cleaved
Question: Does B1 bind?
Answer: binds
